The target of this experiment is Recombinant B56α (UniProt Q15172 1-486). The experiment in a line: ITC. Background: Isothermal titration calorimetry measures the heat released or taken up as one component is titrated into another.

The term Kd denotes a measure of binding affinity in units of concentration.

Sequence of Recombinant B56α (Q15172 whole entry): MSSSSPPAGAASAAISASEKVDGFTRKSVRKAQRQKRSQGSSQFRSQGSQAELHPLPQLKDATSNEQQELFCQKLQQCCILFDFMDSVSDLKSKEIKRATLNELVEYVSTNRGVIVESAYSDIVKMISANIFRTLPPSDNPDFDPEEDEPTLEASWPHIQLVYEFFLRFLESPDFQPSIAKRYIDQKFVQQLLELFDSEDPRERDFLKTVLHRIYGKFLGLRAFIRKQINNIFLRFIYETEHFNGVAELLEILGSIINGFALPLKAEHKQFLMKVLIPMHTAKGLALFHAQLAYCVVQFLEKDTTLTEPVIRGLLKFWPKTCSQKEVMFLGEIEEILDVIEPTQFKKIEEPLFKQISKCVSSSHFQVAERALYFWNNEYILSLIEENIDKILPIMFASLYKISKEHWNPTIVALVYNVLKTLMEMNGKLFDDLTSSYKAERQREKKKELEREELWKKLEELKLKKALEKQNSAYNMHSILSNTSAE

B1: His-tagged 4x(LxxIxE) B56 inhibitor (designed binder)
chain: TGSTGSTGSTGSTGSLPRSSTLPTIHEEEELSLCTGSTGSTGSTGSTGSLPRSSTLPTIHEEEELSLCTGSTGSTGSTGSTGSLPRSSTLPTIHEEEELSLCTGSTGSTGSTGSTGSLPRSSTLPTIHEEEELSLC
As for B1, the Kd was 100 nM.
The same measure for TGSTGSTGSTGSTGSLPRSSTLPTIHEEEELSLC (designed binder) [His-tagged 1x(LxxIxE) B56 inhibitor]: 1300 nM.

B2: His-tagged 2x(LxxIxE) B56 inhibitor (designed binder)
chain: TGSTGSTGSTGSTGSLPRSSTLPTIHEEEELSLCTGSTGSTGSTGSTGSLPRSSTLPTIHEEEELSLC
For the molecule B2, the Kd amounted to 200 nM.

Source of the values: publication PMC7327492 (2020).
